Here are results for one protein from doi:10.1101/2024.01.30.575082 (bioRxiv, 2024).

This series deals with the molecule itself. Put plainly: crystal structure.

B1: Shethna Protein II (FeSII) from Azotobacter vinelandii (natural protein, UniProt Q44501 1-122, looked up)
chain: MATIYFSSPLMPHNKKVQAVAGKRSTLLGVAQENGVKIPFECQDGNCGSCLVKITHLDGERIKGMLLTDKERNVLKSVGKLPKSEEERAAVRDLPPTYRLACQTIVTDEDLLVEFTGEPGGA
As for B1, the binding result was “binds”.
